The values that follow are results of earlier work, collected in PMC11391413.

Read-outs that look alike come from different tables or passages of the source.

In data set [1] the target is SOS1 S10 PRM (Homo sapiens) (UniProt Q07889). Put plainly: NMR.
The target of data set [2] is SOS1 S8 PRM (Homo sapiens) (UniProt Q07889). Description: NMR.
In data set [3] the target is SOS1 S4 PRM (Homo sapiens). Description: NMR.
The target in data set [4] is SOS1 S4 (Homo sapiens).
Data set [5] has as its target SOS1 S2 (Homo sapiens).
In data set [6] the target is SOS1 S4 (Homo sapiens). The source holds these as a separate data set.
For data set [7], the target named is SOS1 S7 PRM (Homo sapiens) (UniProt Q07889). Put plainly: NMR.
The target in data set [8] is SOS1 S2 (Homo sapiens). This is another data set of the same source.

Chain of GRB2 NSH3 (P62993 1-58): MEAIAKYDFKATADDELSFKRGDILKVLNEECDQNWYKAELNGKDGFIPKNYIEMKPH
Chain of GRB2 CSH3 (P62993 156-215): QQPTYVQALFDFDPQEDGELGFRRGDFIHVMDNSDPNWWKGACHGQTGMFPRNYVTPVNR

Regarding GRB2 CSH3 (from UniProt P62993), the Kd (in general, the concentration at which binding is half-saturated) is 131 µM in [1]; 400 µM in data set [2]; 142 µM in data set [3]; 142 µM with SOS1 S4 (Homo sapiens) [4]; 440 µM with SOS1 S2 (Homo sapiens) [5].
For GRB2 NSH3 (from UniProt P62993), the Kd with SOS1 S4 (Homo sapiens) [6] is 37 µM; in data set [7], 580 µM; in [1], 71.5 µM; in data set [2], 208 µM; in [3], 37 µM; with SOS1 S2 (Homo sapiens) [8], 250 µM. Besides, the Kd in the data set with SOS1 S1 (Homo sapiens) is 730 µM.
